Source: patent publication US20240424057A1 (CASE WESTERN RESERVE UNIVERSITY, published 2024)

Assays:
[1] = molecular target: T1, PTPRD extracellular domain, His-tagged (Acro Biosystems, PTD-H52H9) (Homo sapiens (Human), UniProt P23468 21-1265); assay: microscale thermophoresis, fluorescently labelled PTPRD, unlabelled asprosin titrated
T1 construct: only the extracellular domain stood in the assay; also called rPTPRD; rPTPRD-LBD; not shown: His tag (labelled with the His-Tag Labeling Kit RED-tris-NTA)
T1 sequence: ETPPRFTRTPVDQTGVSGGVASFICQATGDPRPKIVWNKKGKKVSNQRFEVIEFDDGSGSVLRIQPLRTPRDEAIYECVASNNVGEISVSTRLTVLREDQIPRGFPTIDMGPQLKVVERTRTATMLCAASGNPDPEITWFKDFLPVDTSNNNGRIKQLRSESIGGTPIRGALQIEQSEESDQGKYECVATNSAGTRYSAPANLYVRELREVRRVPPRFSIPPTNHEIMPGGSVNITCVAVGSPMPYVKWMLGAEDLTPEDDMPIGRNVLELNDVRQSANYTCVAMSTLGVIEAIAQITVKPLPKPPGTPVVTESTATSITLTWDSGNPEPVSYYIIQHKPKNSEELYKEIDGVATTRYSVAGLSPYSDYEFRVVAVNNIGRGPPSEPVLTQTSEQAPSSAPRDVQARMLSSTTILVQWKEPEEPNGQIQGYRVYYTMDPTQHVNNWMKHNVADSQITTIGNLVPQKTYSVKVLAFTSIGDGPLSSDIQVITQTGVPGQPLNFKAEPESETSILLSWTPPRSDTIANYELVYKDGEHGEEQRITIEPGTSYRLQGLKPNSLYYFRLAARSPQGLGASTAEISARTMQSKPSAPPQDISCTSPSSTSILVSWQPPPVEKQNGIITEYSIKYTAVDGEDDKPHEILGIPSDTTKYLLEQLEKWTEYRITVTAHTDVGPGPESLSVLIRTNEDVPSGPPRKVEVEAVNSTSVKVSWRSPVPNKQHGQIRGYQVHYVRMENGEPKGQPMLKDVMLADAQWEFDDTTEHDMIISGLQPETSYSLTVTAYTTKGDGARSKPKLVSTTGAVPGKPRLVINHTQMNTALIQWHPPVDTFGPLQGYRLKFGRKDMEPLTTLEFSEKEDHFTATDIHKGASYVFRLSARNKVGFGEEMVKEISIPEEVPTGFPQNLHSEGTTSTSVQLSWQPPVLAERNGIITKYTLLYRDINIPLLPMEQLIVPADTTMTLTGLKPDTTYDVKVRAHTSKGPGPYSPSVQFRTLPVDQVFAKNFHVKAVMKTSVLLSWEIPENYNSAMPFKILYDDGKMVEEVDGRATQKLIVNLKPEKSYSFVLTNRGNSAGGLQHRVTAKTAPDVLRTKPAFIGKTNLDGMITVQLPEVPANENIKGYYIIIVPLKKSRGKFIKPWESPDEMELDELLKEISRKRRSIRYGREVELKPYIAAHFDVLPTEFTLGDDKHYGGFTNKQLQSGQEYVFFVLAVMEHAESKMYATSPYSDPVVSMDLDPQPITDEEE
Method: The microscale thermophoresis (MST) assay was performed with the Monolith NT.115 from NanoTemper Technologies. PTPRD (Acro Biosystems, PTD-H52H9) was fluorescently labeled according to the manufacturer's protocol (His-Tag Labeling Kit RED-tris-NTA, NanoTemper). A solution of unlabeled asprosin was serially diluted according to the manufacturer's protocol. After labeled PTPRD and unlabeled asprosin were mixed and incubated at room temperature for 30 minutes, samples were loaded into glass capillaries (Monolith NT.115 Capillaries, NanoTemper). Measurements were carried out according to manufacturer's protocol: 40% power and 40% MST power. Assays were repeated three times and KD's were calculated using the NanoTemper analysis software.

[2] = molecular target: T1, PTPRD extracellular domain, His-tagged …; assay: SPR (Biacore T200), PTPRD amine-coupled on CM5 chip, asprosin injected, steady-state analysis
Method: Surface plasmon resonance (SPR) studies were performed using Biacore T200 with PTPRD (Acro Biosystems, PTD-H52H9) covalently immobilized on an S series CM5 sensor chip via amine coupling. To avoid protein aggregation, […] used in SPR experiments were purified by gel filtration in a buffer containing 25 mM Tris-HCl (pH 8.0), 100 mM NaCl and 5 mM DTT, stored at 4° C., and used within 48 hr with minimum concentration process. Asprosin was injected in a series of concentrations from […] to 7.8125 nM was injected at 30 μl/min over the sensor chip at room temperature. Sensorgram traces subtracted with the reference and zero-concentration traces were analyzed using BIA Evaluation software (GE Healthcare Bio-Sciences). Nonlinear steady-state analysis was performed to compute Kd.

[3] = molecular target: T2, recombinant PTPRD-his protein, extracellular domain (Creative BioMart, PTPRD-36H) (Homo sapiens (Human), UniProt P23468 21-1265, biotinylated with EZ-Link-Sulfo-NHS-Biotin in the BLI assay); assay: bio-layer interferometry (Octet RED96), biotinylated PTPRD on SSA biosensors, asprosin 1.23-900 nM, 1:1 global fit
T2 construct: only the extracellular domain stood in the assay; Used in the co-immunoprecipitation and in BLI; also called rPTPRD-his; PTPRD-6his; not shown: 6xHis tag
T2 sequence: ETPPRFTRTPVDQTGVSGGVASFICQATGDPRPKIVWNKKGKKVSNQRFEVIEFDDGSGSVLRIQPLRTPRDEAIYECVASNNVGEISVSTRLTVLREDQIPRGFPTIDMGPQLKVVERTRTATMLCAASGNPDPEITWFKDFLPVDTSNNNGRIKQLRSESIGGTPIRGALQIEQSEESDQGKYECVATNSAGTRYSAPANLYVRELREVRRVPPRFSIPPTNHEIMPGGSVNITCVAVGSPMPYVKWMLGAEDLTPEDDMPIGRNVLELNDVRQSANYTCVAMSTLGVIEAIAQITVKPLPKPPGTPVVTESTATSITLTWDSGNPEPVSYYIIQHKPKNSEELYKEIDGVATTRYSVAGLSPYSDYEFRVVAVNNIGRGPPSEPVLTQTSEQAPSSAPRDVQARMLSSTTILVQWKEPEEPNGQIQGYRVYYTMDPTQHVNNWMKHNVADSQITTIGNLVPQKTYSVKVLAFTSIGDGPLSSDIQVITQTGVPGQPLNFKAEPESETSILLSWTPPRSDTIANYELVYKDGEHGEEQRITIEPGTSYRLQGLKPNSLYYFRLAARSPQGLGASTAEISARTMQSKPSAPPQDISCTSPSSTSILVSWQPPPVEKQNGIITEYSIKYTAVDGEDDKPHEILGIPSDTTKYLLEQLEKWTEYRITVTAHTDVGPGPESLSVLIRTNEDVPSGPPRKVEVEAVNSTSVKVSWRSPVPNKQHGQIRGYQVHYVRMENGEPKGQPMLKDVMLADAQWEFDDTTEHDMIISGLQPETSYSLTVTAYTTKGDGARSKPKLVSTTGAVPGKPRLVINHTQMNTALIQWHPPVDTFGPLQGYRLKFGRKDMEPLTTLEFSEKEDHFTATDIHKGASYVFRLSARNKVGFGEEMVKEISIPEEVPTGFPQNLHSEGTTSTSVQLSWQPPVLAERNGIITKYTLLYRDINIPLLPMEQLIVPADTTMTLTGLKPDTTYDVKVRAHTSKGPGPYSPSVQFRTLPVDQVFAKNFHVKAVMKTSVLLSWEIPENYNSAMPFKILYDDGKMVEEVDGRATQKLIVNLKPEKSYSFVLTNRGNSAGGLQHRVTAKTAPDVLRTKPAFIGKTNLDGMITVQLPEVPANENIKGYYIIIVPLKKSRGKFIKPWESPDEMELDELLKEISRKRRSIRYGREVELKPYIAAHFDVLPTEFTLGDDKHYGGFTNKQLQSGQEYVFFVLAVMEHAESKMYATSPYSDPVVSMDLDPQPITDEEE
Method: (§1) Binding affinity of asprosin to PTPRD was measured on Pall ForteBio's Octet RED96 system. The PTPRD protein (Creative BioMart, PTPRD-36H) was labeled with Biotin using EZ-Link-Sulfo-NHS-Biotin (ThermoFisher Scientific, 21217) and desalted by Zeba™ Spin Desalting Columns. The biotin-labeled PTPRD (20 μg/ml) was loaded on the super streptavidin (SSA) biosensors for 300 seconds. Following 20 seconds of baseline in kinetics buffer, the loaded biosensors were dipped into a series of 3-fold diluted human asprosin (1.23-900 nM) for 300 seconds to record association kinetics and then dipped into a kinetic buffer for 600 seconds to record dissociation kinetics. Kinetic buffer without asprosin was set to correct the background. For fitting of KD value, ForteBio's data analysis software was used to fit the curve by a 1:1 binding model and the global fitting method was applied.

[4] = molecular target: T2, recombinant PTPRD-his protein, …; assay: bio-layer interferometry (Octet RED96), biotin-labelled PTPRD on super streptavidin biosensors, asprosin 1.23-900 nM in solution, 1:1 global fit
Method: as §1

B1: recombinant human asprosin (ligand, UniProt P35555 2732-2871, looked up)
chain: STNETDASNIEDQSETEANVSLASWDVEKTAIFAFNISHVSNKVRILELLPALTTLTNHNRYLIESGNEDGFFKINQKEGISYLHFTKKKPVAGTYSLQISSTPLYKKKELNQLEDKYDKDYLSGELGDNLKMKIQVLLH
notes: domain: cleaved asprosin; Unlabelled analyte in SPR, MST and BLI, and the recombinant asprosin used in IP/MS, ELISA and slice electrophysiology; Only the BLI and ELISA methods call it human; also called rAsprosin; recombinant asprosin
Work on B1 yielded a Kd [1] of 4.2 nM, a Kd [2] of 36.8 nM and a Kd [3] of 57 nM. The koff [4] was 0.000377 s⁻¹ and the kon [4] was 6610 M⁻¹ s⁻¹.
